According to patent US20070065875A1 (INNATE PHARMA S A, published 2007):

T1: NTB-A (NK-T-B-antigen) (human, UniProt Q96DU3 22-332)
T1 construct: Full-length surface glycoprotein; Native cells may also carry the allelic isoform with an extra Ala at position 266; also called KALI cDNA product; MA127-reactive molecule
T1 sequence: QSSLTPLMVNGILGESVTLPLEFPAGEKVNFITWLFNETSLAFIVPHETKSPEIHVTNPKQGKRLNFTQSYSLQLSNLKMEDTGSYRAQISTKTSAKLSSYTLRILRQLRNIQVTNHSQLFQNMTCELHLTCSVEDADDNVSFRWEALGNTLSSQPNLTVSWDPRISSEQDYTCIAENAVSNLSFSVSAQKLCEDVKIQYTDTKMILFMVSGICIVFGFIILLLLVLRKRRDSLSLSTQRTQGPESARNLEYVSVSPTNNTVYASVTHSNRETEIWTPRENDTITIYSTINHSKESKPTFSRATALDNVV


Key:
NTB-A (NK-T-B-antigen) [1] = biological target: T1, NTB-A (NK-T-B-antigen); assay: NTB-A immunoprecipitates from 1% digitonin NK cell lysates probed by western blot
Description: (§1) NK cells (10⁸) were stimulated or not with 100 M sodium pervanadate (28). 1% NP-40 or 1% digitonin cell lysates were immunoprecipitated with Sepharose-PA (Amersham Pharmacia Biotech)-coupled mAbs. Samples were analyzed in discontinuous SDS-PAGE, transferred to Immobilon P (Millipore), and probed with: (a) anti-phosphotyrosine mAb (PY20-HRPO; Transduction Laboratories); (b) anti-SHP-2 or anti-SHP-1 mAbs (PTP1D and PTP1C, respectively; Transduction Laboratories) followed by rabbit anti-mouse-HRPO (Dako); (c) anti-SH2D1A rabbit anti-serum (produced by Eurogentec S.A; reference 28) followed by donkey anti-rabbit-HRPO (Amersham Pharmacia Biotech). The Renaissance Chemiluminescence Kit (NEN Life Science Products) was used for detection. Putative NTB-A association with known signal transducing molecules was analyzed by probing NTB-A immunoprecipitates, obtained from 1% digitonin cell lysates, with anti-FcRI (provided by E. Vivier, Marseille, France), anti-DAP12 (SI-28; reference 10), and anti-LAT (UBI; Upstate Biotechnology) antisera or with anti-CD3mAb (TIA/2; Immunotech).

NTB-A (NK-T-B-antigen) [2] = biological target: T1, NTB-A (NK-T-B-antigen); assay: NTB-A immunoprecipitates from 1% digitonin NK cell lysates probed with anti-LAT antiserum
Description: as §1

| binding result (NTB-A (NK-T-B-antigen) [1]) | binding result (NTB-A (NK-T-B-antigen) [2]) | Binder |
| --- | --- | --- |
| no binding |  | FcεRIγ (other, human, UniProt P30273 19-86, looked up) LGEPQLCYILDAILFLYGIVLTLLYCRLKIQVRKAAITSYEKSDGVYTGLSTRNQETYETLKHEKPPQ |
| no binding |  | KARAP/DAP12 (other, human, UniProt O43914 22-113, looked up) LRPVQAQAQSDCSCSTVSPGVLAGIVMGDLVLTVLIALAVYFLGRLVPRGRGAAEAATRKQRITETESPYQELQGQRSDVYSDLNTQRPYYK |
|  | no binding | linker for activation of T cells (LAT) (other, human, UniProt O43561 1-262, looked up) MEEAILVPCVLGLLLLPILAMLMALCVHCHRLPGSYDSTSSDSLYPRGIQFKRPHTVAPWPPAYPPVTSYPPLSQPDLLPIPRSPQPLGGSHRTPSSRRDSDGANSVASYENEGASGIRGAQAGWGVWGPSWTRLTPVSLPPEPACEDADEDEDDYHNPGYLVVLPDSTPATSTAAPSAPALSTPGIRDSAFSMESIDDYVNVPESGESAEASLDGSREYVNVSQELHPGAAKTEPAALSSQEAEEVEEEGAPDYENLQELN |
